Laboratory results taken from patent US20170218369, “AN ANTAGONISTIC PD-1 APTAMER AND ITS APPLICATIONS IN CANCER THERAPY RELATED APPLICATIONS” (Academia Sinica, published 2017).

Experiments:
[1] = biological target: PD-1 (programmed cell death protein 1) extracellular domain (UniProt Q15116 Q15116:25-170); assay: filter; total binding assay
[2] = biological target: T1, PD-1 (programmed cell death protein 1) (Mus musculus, UniProt Q02242 Q02242:25-169); assay: ELONA; +++ class; details: tags: His tag, immobilized on Ni-NTA plate; label: 5'-biotin
Description: (§1) Briefly, 200 ng of histidine-tag labeled PD-1 receptors (His tag-PD1 protein) were coated on nickel-nitrilotriacetic acid (Ni-NTA) coated plates and treated with aptamers conjugated at their 5′ end to biotin (Biotin-PD-1 aptamer). Binding of the aptamers to PD-1 was detected using streptavidin-HRP and ECL substrate. The aptamers tested were:
(§2) The above aptamers were tested for binding to human, mouse, rat, rhesus monkey and/or canine PD-1 using the in vitro PD-1 binding assay depicted in FIG. 9.

[3] = biological target: PD-1 (programmed cell death protein 1) (Homo sapiens, UniProt Q15116 Q15116:25-170); assay: competition; inhibition of PD-1/PD-L1 interaction; details: tags: His tag, immobilized on Ni-NTA plate
Description: Each of the above aptamer nucleotide sequences were tested for PD-1 antagonistic activity using an in vitro competition assay. Briefly, 200 ng of histidine-tag labeled PD-1 receptors (His tag-PD1 protein) were coated on nickel-nitrilotriacetic acid (Ni-NTA) coated plates and treated with Fc-labeled PDL-1 protein/aptamer mixture. Protein G-HRP and ECL substrate was used to determine the binding signal. The PD-1 antagonistic antibody J116 was used as a positive control and the negative control was performed in the absence of aptamer or antibody. A schematic representation of the competition assay is shown in FIG. 8, panels A and B. Each of the aptamer sequences (Cores 1-6 and Core 1(optimized)) were tested in the in vitro competition assay at a concentration of 200 nM. In the competition assay, each aptamer nucleotide sequence inhibited the interaction between PD-1 and PDL-1 as shown in FIG. 6.

[4] = biological target: T1, PD-1 (programmed cell death protein 1); assay: ELONA; ++ class; details: tags: His tag, immobilized on Ni-NTA plate; label: 5'-biotin
Description: as §1, §2

T1 sequence (Q02242 25-169, one chain of several): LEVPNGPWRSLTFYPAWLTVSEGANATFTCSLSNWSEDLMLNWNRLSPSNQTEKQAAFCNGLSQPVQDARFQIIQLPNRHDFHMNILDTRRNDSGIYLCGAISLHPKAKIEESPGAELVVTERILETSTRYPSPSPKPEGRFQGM
PD-1 (programmed cell death protein 1) extracellular domain, sequence (Q15116 25-170, one chain of several): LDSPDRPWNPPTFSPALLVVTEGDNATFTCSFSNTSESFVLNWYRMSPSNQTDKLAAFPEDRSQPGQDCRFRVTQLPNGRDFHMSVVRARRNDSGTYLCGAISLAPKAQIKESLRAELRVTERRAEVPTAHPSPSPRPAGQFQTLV
PD-1 (programmed cell death protein 1) (Homo sapiens, UniProt Q15116 Q15116:25-170), sequence (Q15116 25-170, one chain of several): as above

B1: PD7 (ssDNA)
DNA: TCCCTACGGCGCTAACCTTCCATCTCCCATGCTTAGTCAAACATACGCCACCGTGCTACAAC
Question: With B1 as the binder, how does the Kd [1] read?
Answer: 9.7 nM

B2: PD7 (5'-biotin) (ssDNA)
DNA: B1 DNA
Question: For B2, which Kd [2] is on record?
Answer: < 20 nM

B3: PD16 (ssDNA)
DNA: TCCCTACGGCGCTAACTGATCACAAGAATAACTATCCCATCTCCCTGCCACCGTGCTACAAC
Question: B3 was tested. Which Kd [1] did it give?
Answer: 2.1 nM

Question: How did the IC50 [3] turn out when CCATCTCCC (ssDNA) [Core 1] was run?
Answer: 31.2 nM

Question: For CCATCTCCC (ssDNA) [Core 1 (5'-biotin)], which Kd [4] is on record?
Answer: 44.7 nM

B4: PD100 (5'-biotin) (ssDNA)
DNA: TCCCTACGGCGCTAACCCTCCCCTAGTATATATTGTCCTCGTCTATGCCACCGTGCTACAAC
Question: With B4 as the binder, how does the Kd [4] read?
Answer: 44.7 nM

Question: With TATATTGTCC (ssDNA) [Core 2 (5'-biotin)] as the binder, how does the Kd [2] read?
Answer: < 20 nM
